Results reported in PMC5647379.
Each block holds one substance with its values, some of them ahead of it.

Experiments:
[1] = biological target: dansylated calmodulin (D-CaM, 5-(dimethylamino)naphtalene-1-sulfonyl-calmodulin) (rat) (UniProt P0DP29); assay: other fluorescence titration; D-CaM 12.5 nM in the cuvette, increasing concentrations of GST-fusion protein; no Ca2+ (EGTA 10 mM); Tris-HCl 25 mM pH 7.4, KCl 120 mM, NaCl 5 mM, MgCl2 2 mM; 25 °C; apparent affinity (EC50 of a Hill fit to the fluorescence enhancement)
[2] = biological target: dansylated calmodulin (D-CaM, 5-(dimethylamino)naphtalene-1-sulfonyl-calmodulin) (rat) (UniProt P0DP29); assay: dansyl-CaM fluorescence time course; D-CaM 12.5 nM in a stirred cuvette, emission at 500 nm against time; wt protein (400 nM) added, or one mutant (400 nM) and two minutes later the other mutant (400 nM); also 50 and 100 nM; Fluorescence buffer with or without Ca2+; 25 °C and 37 °C
[3] = biological target: Fluorescent dansylated CaM (D-CaM, 5-(dimethylamino)naphtalene-1-sulfonyl-calmodulin) (rat) (UniProt P0DP29); assay: other fluorescence titration; increasing GST-fusion protein added to D-CaM (12.5 nM) in the cuvette; dansyl fluorescence enhancement, Hill fit, apparent affinity (EC50); 25 °C; Fluorescence buffer with 9.63 mM Ca2+ added (3.9 µM free Ca2+)
[4] = biological target: Fluorescent dansylated CaM (D-CaM, 5-(dimethylamino)naphtalene-1-sulfonyl-calmodulin) (rat) (UniProt P0DP29); assay: other fluorescence titration; increasing GST-fusion protein added to D-CaM (12.5 nM) in the cuvette; dansyl fluorescence enhancement, Hill fit, apparent affinity (EC50); 25 °C; Tris-HCl 25 mM pH 7.4, KCl 120 mM, NaCl 5 mM, MgCl2 2 mM, EGTA 10 mM; without Ca2+
[5] = biological target: dansylated calmodulin (D-CaM, 5-(dimethylamino)naphtalene-1-sulfonyl-calmodulin) (rat) (UniProt P0DP29); assay: other fluorescence titration; D-CaM 12.5 nM in the cuvette, increasing concentrations of GST-fusion protein; no Ca2+ (EGTA 10 mM); Tris-HCl 25 mM pH 7.4, KCl 120 mM, NaCl 5 mM, MgCl2 2 mM; 25 °C; apparent affinity (EC50 of a Hill fit to the fluorescence enhancement); remark: listed apart in the source
[6] = biological target: dansylated calmodulin (D-CaM, 5-(dimethylamino)naphtalene-1-sulfonyl-calmodulin) (rat) (UniProt P0DP29); assay: other fluorescence titration; as a2 but with an excess of free Ca2+ (3.9 µM; 9.63 mM Ca2+ added to the Fluorescence buffer); apparent affinity (EC50)
[7] = biological target: mTurquoise2-Kv7.2-ABCD (residues 310-653) (human); assay: FRET or BRET; equimolar mixtures (500 nM or 2.5 µM each) of purified CFP-ABCD/CaM (donor) and YFP-ABCD/CaM (acceptor) complexes; FRET index followed over time; KCl 120 mM, Hepes 50 mM, NaCl 5 mM, EGTA 5 mM, with or without Ca2+

EC50 [3]: 78.5 nM
Substance: ABCD# (equimolar mixture of GST-ABCD-S511D and GST-ABCD-A343D of Kv7.2)

EC50 [1]: 120 nM
Substance: ABCD#-L609R (equal mixture of helix A and helix B mutants of ABCD carrying L609R)

time to reach half maximal FRET (2.5 µM donor and acceptor) [7]: 6.9 min | time to reach the half maximal FRET index (500 nM mixture) [7]: 12.2 min
Substance: mCitrine-Kv7.2-ABCD (residues 310-653) (domain or fragment)

More lines, now with the values behind:

Substance: ABCD# (equimolar mixture of ABCD-A343D and ABCD-S511D)
EC50 [1]: 45.5 nM | half-time in the trans-binding assay (400 nM) [2]: 6.5 min | time to reach the half-maximal D-CaM fluorescence signal (400 nM, 25 °C) [2]: 12 min | time to reach the half-maximal D-CaM fluorescence signal (400 nM, 37 °C) [2]: 9.2 min

Substance: ABCD#-L609R (equimolar mixture of GST-ABCD-S511D-L609R and GST-ABCD-A343D-L609R of Kv7.2)
EC50 [4]: 119 nM | EC50 [3]: 173 nM

Substance: GST-Kv7.2 ABCD (helices ABCD fused to GST) (domain or fragment)
EC50 [1]: 9.1 nM | EC50 [5]: 9.2 nM | EC50 [6]: 15.1 nM
